The values that follow come from US20160263155A1, “T CELL RECEPTORS DIRECTED AGAINST THE PREFERENTIALLY EXPRESSED ANTIGEN OF MELANOMA AND USES THEREOF” (LEIDEN UNIVERSITY MEDICAL CENTER, priority 2015, published 2016).

For assay [1], the system named is neuroblastoma (NB) cell lines. The assay is described as follows: HLA-class I expression of neuroblastoma cell lines after interferon treatment. The class given is cell-based, human. As to conditions: 48 h, 300 IU/ml IFN-α or 100 IU/ml IFN-γ.
Assay [2] has as its system Ewing sarcoma cell lines. Kind of assay: HLA-class I expression of Ewing sarcoma cell lines after interferon treatment. The format is cell-based, human. As to conditions: 48 h, 300 IU/ml IFN-alpha or 100 IU/ml IFN-gamma.

B1: IFN-gamma: interferon used to treat tumor cell lines for 48 h (protein, UniProt P01579 24-161, looked up)
Interferon gamma: QDPYVKEAENLKKYFNAGHSDVADNGTLFLGILKNWKEESDRKIMQSQIVSFYFKLFKNFKDDQSIQKSVETIKEDMNVKFFNSNKKKRDDFEKLTNYSVTDLNVQRKAIHELIQVMAELSPAAKTGKRKRSQMLFRG
Consider B1, for which the “HLA-class I expression on the cell surface” value in assay [1] and in assay [2] was “increased” each time.
